From US20190275125A1
Read-outs that look alike come from different tables or passages of the source.

Columns and labels:
Experiment in all cases: MSD inhibition assay, abeta 1-28 coated plates
[1] = target: Biosimilar (BS) bapineuzumab
[2] = target: Biosimilar (BS) bapineuzumab; remark: listed apart in the source
[3] = target: Biosimilar (BS) bapineuzumab; remark: listed apart in the source

Chain of Biosimilar (BS) bapineuzumab (chain, as listed by the source, chain 1 of 2): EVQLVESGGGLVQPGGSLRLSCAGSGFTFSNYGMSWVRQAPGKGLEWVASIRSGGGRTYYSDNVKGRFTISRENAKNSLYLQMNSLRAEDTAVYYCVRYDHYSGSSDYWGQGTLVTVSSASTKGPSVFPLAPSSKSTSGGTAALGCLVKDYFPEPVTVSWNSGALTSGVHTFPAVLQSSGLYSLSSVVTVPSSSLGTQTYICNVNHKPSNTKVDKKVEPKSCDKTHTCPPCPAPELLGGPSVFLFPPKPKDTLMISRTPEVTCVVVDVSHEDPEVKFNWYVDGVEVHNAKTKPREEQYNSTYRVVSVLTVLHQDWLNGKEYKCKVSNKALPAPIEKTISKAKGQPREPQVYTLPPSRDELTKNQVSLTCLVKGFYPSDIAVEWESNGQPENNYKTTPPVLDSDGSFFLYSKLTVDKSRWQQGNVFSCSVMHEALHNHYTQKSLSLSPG
Chain of Biosimilar (BS) bapineuzumab (chain, as listed by the source, chain 2 of 2): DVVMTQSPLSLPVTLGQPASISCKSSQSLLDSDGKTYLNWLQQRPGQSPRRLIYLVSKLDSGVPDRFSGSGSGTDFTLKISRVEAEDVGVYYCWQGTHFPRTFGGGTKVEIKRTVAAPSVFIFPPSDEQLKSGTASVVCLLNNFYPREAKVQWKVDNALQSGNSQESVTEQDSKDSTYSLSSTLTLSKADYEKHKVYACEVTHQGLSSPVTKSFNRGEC

B1: abeta 1-12 trimer construct, P05067 672-683; P05067 672-683; P05067 672-683 (peptide)
peptide: DAEFRHDSGYEVGGGGGGGGDAEFRHDSGYEVGGGGGGGGDAEFRHDSGYEV
modifications: not checked
IC50 [1]: 10 nM
IC50 [2]: 10 to 40 nM
IC50 [3]: 19 nM
